Assay results as given in patent US20230091105A1 (NORTHWESTERN UNIVERSITY, published 2023).

Tests used:
Tie2 receptor on HUVEC [1] = biological target: T1, Tie2 receptor on HUVEC (human, UniProt Q02763 23-1124); assay: cell-based or functional assay
Tie2 receptor on HUVEC [2] = biological target: T1, Tie2 receptor on HUVEC; assay: summary sentence of Example 3 (co-IP and HUVEC activation)

T1 sequence (Q02763 23-1124): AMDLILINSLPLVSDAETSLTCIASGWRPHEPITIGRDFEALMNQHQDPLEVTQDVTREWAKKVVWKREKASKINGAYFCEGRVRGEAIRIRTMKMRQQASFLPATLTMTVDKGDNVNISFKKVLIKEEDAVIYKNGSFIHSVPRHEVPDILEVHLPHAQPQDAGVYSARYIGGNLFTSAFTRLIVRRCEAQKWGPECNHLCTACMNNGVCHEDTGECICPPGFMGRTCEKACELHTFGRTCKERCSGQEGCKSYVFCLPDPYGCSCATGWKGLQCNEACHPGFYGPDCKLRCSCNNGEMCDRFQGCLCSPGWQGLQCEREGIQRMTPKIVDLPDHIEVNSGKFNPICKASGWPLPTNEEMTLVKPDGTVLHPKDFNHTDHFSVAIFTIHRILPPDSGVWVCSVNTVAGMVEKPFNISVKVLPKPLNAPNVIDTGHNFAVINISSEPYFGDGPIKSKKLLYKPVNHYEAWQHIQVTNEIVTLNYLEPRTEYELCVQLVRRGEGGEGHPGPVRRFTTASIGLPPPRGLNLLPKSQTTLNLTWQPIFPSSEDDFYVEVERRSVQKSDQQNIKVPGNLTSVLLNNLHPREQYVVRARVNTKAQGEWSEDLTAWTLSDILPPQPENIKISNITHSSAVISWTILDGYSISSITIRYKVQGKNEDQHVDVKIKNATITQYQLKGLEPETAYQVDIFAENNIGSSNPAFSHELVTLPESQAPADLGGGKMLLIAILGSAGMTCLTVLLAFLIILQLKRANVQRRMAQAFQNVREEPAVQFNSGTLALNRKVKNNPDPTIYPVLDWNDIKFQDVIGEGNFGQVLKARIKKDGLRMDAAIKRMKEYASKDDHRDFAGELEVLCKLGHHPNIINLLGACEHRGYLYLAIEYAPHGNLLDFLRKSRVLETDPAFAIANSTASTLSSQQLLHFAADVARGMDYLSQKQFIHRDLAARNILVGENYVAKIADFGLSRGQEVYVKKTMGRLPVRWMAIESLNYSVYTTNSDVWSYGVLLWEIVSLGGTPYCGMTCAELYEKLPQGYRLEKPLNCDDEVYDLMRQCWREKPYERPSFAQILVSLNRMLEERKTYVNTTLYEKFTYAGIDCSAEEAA

| Binder | phosphorylation level of AKT (pAKT) in HUVEC treated for 20 minutes, EC50 (Tie2 receptor on HUVEC [1]) [ng/mL] | binding result (Tie2 receptor on HUVEC [2]) |
| --- | --- | --- |
| ANG1-C4BP (designed binder, not shown: small tags and cut ends) KPFRDCADVYQAGFNKSGIYTIYINNMPEPKKVFCNMDVNGGGWTVIQHREDGSLDFQRGWKEYKMGFGNPSGEYWLGNEFIFAITSQRQYMLRIELMDWEGNRAYSQYDRFHIGNEKQNYRLYLKGHTGTAGKQSSLILHGADFSTKDADNDNCMCKCALMLTGGWWFDACGPSNLNGMFYTAGQNHGKLNGIKWHYFKGPSYSLRSTTMMIRPLDFGGGGSETPEGCEQVLTGKRLMQCLPNPEDVKMALEVYKLSLEIEQLELQRDSARQSTLDKEL | 87 |  |
| C4BP-ANG1 (designed binder, not shown: small tags and cut ends, Heptamer through disulfide-bridged C4BP segment; also called C4BP-ANG1 chimeric fusion protein) ETPEGCEQVLTGKRLMQCLPNPEDVKMALEVYKLSLEIEQLELQRDSARQSTLDKELGGGGSKPFRDCADVYQAGFNKSGIYTIYINNMPEPKKVFCNMDVNGGGWTVIQHREDGSLDFQRGWKEYKMGFGNPSGEYWLGNEFIFAITSQRQYMLRIELMDWEGNRAYSQYDRFHIGNEKQNYRLYLKGHTGTAGKQSSLILHGADFSTKDADNDNCMCKCALMLTGGWWFDACGPSNLNGMFYTAGQNHGKLNGIKWHYFKGPSYSLRSTTMMIRPLDF |  | binds |
